Assays:
Format in all cases: biochemical
human thrombin [1] = target: T1, human thrombin (Homo sapiens, UniProt P00734); experiment: Amidolytic activity of human thrombin towards OA-S2288 (pNA release, OD 405 nm); settings: Michaelis-Menten fit
T1 construct: The formation of thrombin in clotting blood or plasma arises from prothrombin by an enzymatic controlled reaction
Protocol: (§1) The amidolytic activity of human thrombin and human α2M-IIa towards OA-S2288 was measured. The reaction mixtures contained 22 μM OA-S2288, 50 nM thrombin or α2M-IIa and 175 mM NaCl, 50 mM Tris-HCl, 2 mg/ml ovalbumin (pH 7.9).
(§2) In FIG. 2 the amount of free p-nitroanilide (pNA) formed, expressed as milli optical density at 405 nm, is plotted against the time. The reaction temperature was 37° C. The grey curves are the measured data, whereas the black line is obtained by fitting, assuming that product formation occurs according to Michaelis-Menten kinetics.
(§3) Product formation in time can be described as: E.kcat. St/(Km+St), in which St is the substrate concentration in time (i.e. the substrate concentration originally present (S0) minus the formed product or split substrate, and E is the enzyme that splits the substrate, either thrombin or α2M-IIa.

human α2M-IIa [2] = target: T2, human α2M-IIa (Homo sapiens, UniProt P00734); experiment: Amidolytic activity of human α2M-IIa towards OA-S2288 (pNA release, OD 405 nm)
T2 construct: The formation of thrombin in clotting blood or plasma arises from prothrombin by an enzymatic controlled reaction
Protocol: as §1, §2, §3

human thrombin [3] = target: T1, human thrombin; experiment: Hydrolysis of OA-AR-AMC by free thrombin (AMC fluorescence); settings: 5.5 μM OA-AR-AMC, 85 nM human thrombin, 25° C., pH 8.0, Michaelis-Menten fit
Protocol: (§4) The assay was carried out at 25° C. in 96 well Microfluor W “U” bottomed micro titre plates (Dynex, London, UK) in 10 mM HEPES, 5 mM CaCl2, 0.02% sodium azide, pH 8.0). In case of -∘- the vessel contained 5.5 μM OA-AR-AMC (Ala-Arg-AMC coupled to ovalbumin) and 85 nM human thrombin and in case of -∇-5.5 μM OA-AR-AMC and 65 μM human α2M-IIa. The black symbols (-●- and -▾-) were obtained by fitting assuming that the substrate is hydrolysed by thrombin according to Michaelis-Menten kinetics. […] For hydrolysis by α2M-IIa the already derived S0 and Km were found and kcat=0.008 s^−1.

human α2M-IIa [4] = target: T2, human α2M-IIa; experiment: Hydrolysis of OA-AR-AMC by thrombin inactivated by α2M (AMC fluorescence)
Protocol: as §4

| Substance | Km (human thrombin [1]; 22 μM OA-S2288, 50 nM thrombin, pH 7.9, 37° C.) | kcat (human thrombin [1]; E is thrombin, 22 μM OA-S2288, 50 nM enzyme, 37° C.) | kcat (human α2M-IIa [2]; E is α2M-IIa, 22 μM OA-S2288, 50 nM enzyme, 37° C., Michaelis-Menten fit) | hydrolysis by α2M-IIa (in words) (human α2M-IIa [2]; ovalbumin coupled to S2288) | Km (human thrombin [3]) | kcat (human thrombin [3]) | kcat (human α2M-IIa [4]; 5.5 μM OA-AR-AMC, 65 μM human α2M-IIa, 25° C., pH 8.0, Michaelis-Menten fit) | Km (human α2M-IIa [4]; hydrolysis by α2M-IIa, the already derived S0 and Km) | hydrolysis by thrombin entrapped in α2M (in words) (human α2M-IIa [4]; ovalbumin coupled to Ala-Arg-AMC) |
| --- | --- | --- | --- | --- | --- | --- | --- | --- | --- |
| ovalbumin coupled to H-D-isoleucyl-L-prolyl-L-arginine-p-nitroanilide.2HCl [OA-S2288] | 1.47 µM | 0.31 s⁻¹ | 0.002 s⁻¹ | loses its ability to be hydrolysed by α2M-IIa, but not by thrombin | – | – | – | – | – |
| ovalbumin coupled to H-alanyl-L-arginine-7-amido-4-methyl-coumarin [OA-AR-AMC] | – | – | – | – | 1.2 µM | 3.3 s⁻¹ | 0.008 s⁻¹ | 1.2 µM | will not be split anymore by thrombin entrapped in the cavity of α2M |
